For data set [1], the system named is HeLa Kyoto. Description: solubility in G1/S (NP-40 vs SDS abundance) (log2 ratio); higher = more soluble. As to conditions: cell cycle stage: G1/S.
Data set [2] deals with HeLa Kyoto. Description: melting temperature (median over replicates), in situ; higher = more thermally stable.
Data set [3] relates to HeLa Kyoto. Nature of the data set: solubility change mitosis vs G1/S (difference of NP-40 vs SDS log2 ratios) (log2 ratio difference); higher = more soluble in mitosis.
In data set [4] the test system is HeLa Kyoto. Nature of the data set: thermal stability score vs G1/S (z-score of summed log2 fold changes over temperatures); higher = more thermally stable than in G1/S.
The mark [5] stands for this setting: cell cycle stage: early G1 (4.5 h after nocodazole release).
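For melting temperature (median over replicates), in situ in this document: HeLa Kyoto cells synchronized by double thymidine or nocodazole block, proteins quantified by TMT10plex mass spectrometry, three independent biological replicates.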
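For solubility change mitosis vs G1/S (difference of NP-40 vs SDS log2 ratios) in this document: synchronized HeLa Kyoto cells (double thymidine block for G1/S, nocodazole release for mitosis), protein amounts in NP-40 versus SDS lysates quantified by mass spectrometry, three biological replicates.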
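For solubility in G1/S (NP-40 vs SDS abundance) in this document: HeLa Kyoto cells arrested at G1/S by double thymidine block, proteins quantified by TMT10plex mass spectrometry in mild NP-40 versus SDS extracts, three biological replicates.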
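For thermal stability score vs G1/S (z-score of summed log2 fold changes over temperatures) in this document: synchronized HeLa Kyoto cells, proteins quantified by TMT10plex mass spectrometry, three biological replicates, mitosis taken 0.5 h after nocodazole release, G1/S directly after double thymidine block.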

Consider “MPAVSLPPKENALFKRILRCYEHKQYRNGLKFCKQILSNPKFAEHGETLAMKGLTLNCLGKKEEAYELVRRGLRNDLKSHVCWHVYGLLQRSDKKYDEAIKCYRNALKWDKDNLQILRDLSLLQIQMRDLEGYRETRYQLLQLRPAQRASWIGYAIAYHLLEDYEMAAKILEEFRKTQQTSPDKVDYEYSELLLYQNQVLREAGLYREALEHLCTYEKQICDKLAVEETKGELLLQLCRLEDAADVYRGLQERNPENWAYYKGLEKALKPANMLERLKIYEEAWTKYPRGLVPRRLPLNFLSGEKFKECLDKFLRMNFSKGCPPVFNTLRSLYKDKEKVAIIEELVVGYETSLKSCRLFNPNDDGKEEPPTTLLWVQYYLAQHYDKIGQPSIALEYINTAIESTPTLIELFLVKAKIYKHAGNIKEAARWMDEAQALDTADRFINSKCAKYMLKANLIKEAEEMCSKFTREGTSAVENLNEMQCMWFQTECAQAYKAMNKFGEALKKCHEIERHFIEITDDQFDFHTYCMRKITLRSYVDLLKLEDVLRQHPFYFKAARIAIEIYLKLHDNPLTDENKEHEADTANMSDKELKKLRNKQRRAQKKAQIEEEKKNAEKEKQQRNQKKKKDDDDEEIGGPKEELIPEKLAKVETPLEEAIKFLTPLKNLVKNKIETHLFAFEIYFRKEKFLLMLQSVKRAFAIDSSHPWLHECMIRLFNTAVCESKDLSDTVRTVLKQEMNRLFGATNPKNFNETFLKRNSDSLPHRLSAAKMVYYLDPSSQKRAIELATTLDESLTNRNLQTCMEVLEALYDGSLGDCKEAAEIYRANCHKLFPYALAFMPPGYEEDMKITVNGDSSAEAEELANEI [NAA15]”, for which the “solubility in G1/S (log2)” value with HeLa Kyoto [1] was -0.262. In addition, the values for the melting temperature in the data set on HeLa Kyoto [2] (cell cycle stage: G1/S) and in the data set with HeLa Kyoto [2] (cell cycle stage: mitosis) were 53.9 °C and 52.5 °C, respectively. For the same sequence, the “solubility change mitosis (log2)” value in the data set with HeLa Kyoto [3] was -0.124. Besides, the thermal stability score is 0.92 in the data set on HeLa Kyoto [4] (setting [5]) and -0.18 with HeLa Kyoto [4] (cell cycle stage: mitosis).

“MPFPVTTQGSQQTQPPQKHYGITSPISLAAPKETDCVLTQKLIETLKPFGVFEEEEELQRRILILGKLNNLVKEWIREISESKNLPQSVIENVGGKIFTFGSYRLGVHTKGADIDALCVAPRHVDRSDFFTSFYDKLKLQEEVKDLRAVEEAFVPVIKLCFDGIEIDILFARLALQTIPEDLDLRDDSLLKNLDIRCIRSLNGCRVTDEILHLVPNIDNFRLTLRAIKLWAKRHNIYSNILGFLGGVSWAMLVARTCQLYPNAIASTLVHKFFLVFSKWEWPNPVLLKQPEECNLNLPVWDPRVNPSDRYHLMPIITPAYPQQNSTYNVSVSTRMVMVEEFKQGLAITDEILLSKAEWSKLFEAPNFFQKYKHYIVLLASAPTEKQRLEWVGLVESKIRILVGSLEKNEFITLAHVNPQSFPAPKENPDKEEFRTMWVIGLVFKKTENSENLSVDLTYDIQSFTDTVYRQAINSKMFEVDMKIAAMHVKRKQLHQLLPNHVLQKKKKHSTEGVKLTALNDSSLDLSMDSDNSMSVPSPTSATKTSPLNSSGSSQGRNSPAPAVTAASVTNIQATEVSVPQVNSSESSGGTSSESIPQTATQPAISPPPKPTVSRVVSSTRLVNPPPRSSGNAATSGNAATKIPTPIVGVKRTSSPHKEESPKKTKTEEDETSEDANCLALSGHDKTEAKEQLDTETSTTQSETIQTAASLLASQKTSSTDLSDIPALPANPIPVIKNSIKLRLNR [PAPOLA]”: the “solubility in G1/S (log2)” value in the data set with HeLa Kyoto [1] came to 0.109. Further, the melting temperature in the data set on HeLa Kyoto [2] (cell cycle stage: G1/S) was 51.6 °C; with HeLa Kyoto [2] (cell cycle stage: mitosis), 52 °C. Further, the “solubility change mitosis (log2)” value in the data set with HeLa Kyoto [3] was -0.238. Moreover, the thermal stability score in the data set on HeLa Kyoto [4] (setting [5]) is 1.44; with HeLa Kyoto [4] (cell cycle stage: mitosis), 1.67.

For “MPGFDYKFLEKPKRRLLCPLCGKPMREPVQVSTCGHRFCDTCLQEFLSEGVFKCPEDQLPLDYAKIYPDPELEVQVLGLPIRCIHSEEGCRWSGPLRHLQGHLNTCSFNVIPCPNRCPMKLSRRDLPAHLQHDCPKRRLKCEFCGCDFSGEAYESHEGMCPQESVYCENKCGARMMRRLLAQHATSECPKRTQPCTYCTKEFVFDTIQSHQYQCPRLPVACPNQCGVGTVAREDLPGHLKDSCNTALVLCPFKDSGCKHRCPKLAMARHVEESVKPHLAMMCALVSRQRQELQELRRELEELSVGSDGVLIWKIGSYGRRLQEAKAKPNLECFSPAFYTHKYGYKLQVSAFLNGNGSGEGTHLSLYIRVLPGAFDNLLEWPFARRVTFSLLDQSDPGLAKPQHVTETFHPDPNWKNFQKPGTWRGSLDESSLGFGYPKFISHQDIRKRNYVRDDAVFIRAAVELPRKILS [TRAF4]”, the “solubility in G1/S (log2)” value in the data set with HeLa Kyoto [1] is -0.439. Also, the melting temperature in the data set with HeLa Kyoto [2] (cell cycle stage: G1/S) is 51.3 °C; with HeLa Kyoto [2] (cell cycle stage: mitosis), 51.8 °C. Also, in the data set with HeLa Kyoto [3], the “solubility change mitosis (log2)” value stood at 0.124. Further, the thermal stability score is 0.266 in the data set with HeLa Kyoto [4] (setting [5]) and 0.814 in the data set on HeLa Kyoto [4] (cell cycle stage: mitosis).
